The text below walks through data of PMC4837482, “The complex binding mode of the peptide hormone H2 relaxin to its receptor RXFP1” (Nature Communications, 2016).

The target in assay [1] is T1, RXFP1 D51A, full length (human).
T1 sequence (Q9HBX9 1-757 with D51A, looked up): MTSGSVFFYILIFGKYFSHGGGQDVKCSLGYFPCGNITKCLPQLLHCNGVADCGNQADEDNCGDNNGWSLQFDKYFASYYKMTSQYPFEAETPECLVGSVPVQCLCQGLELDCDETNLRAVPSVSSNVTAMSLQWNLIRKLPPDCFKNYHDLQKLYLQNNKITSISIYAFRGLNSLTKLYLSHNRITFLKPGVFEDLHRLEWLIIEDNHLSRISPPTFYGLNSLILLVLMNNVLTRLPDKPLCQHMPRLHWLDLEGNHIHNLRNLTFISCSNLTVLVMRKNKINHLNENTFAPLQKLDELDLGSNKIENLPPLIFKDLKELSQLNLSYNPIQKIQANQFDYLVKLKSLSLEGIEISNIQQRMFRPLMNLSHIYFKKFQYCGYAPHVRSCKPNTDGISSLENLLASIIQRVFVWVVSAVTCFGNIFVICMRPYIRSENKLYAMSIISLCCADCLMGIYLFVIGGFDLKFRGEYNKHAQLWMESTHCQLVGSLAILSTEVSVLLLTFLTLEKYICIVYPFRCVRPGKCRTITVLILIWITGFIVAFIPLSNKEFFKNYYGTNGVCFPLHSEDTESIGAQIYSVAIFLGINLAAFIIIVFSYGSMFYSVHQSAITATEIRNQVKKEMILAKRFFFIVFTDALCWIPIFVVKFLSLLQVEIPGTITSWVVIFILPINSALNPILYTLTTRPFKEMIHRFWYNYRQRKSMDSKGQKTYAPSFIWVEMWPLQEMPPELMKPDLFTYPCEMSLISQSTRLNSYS

Assay [2] concerns the target RXFP1 W46A, full length (human).
Assay [3] addresses RXFP1 M60A, full length (human).
For assay [4], the target named is RXFP1 G45A, full length (human).
Assay [5] addresses RXFP1 G41A, full length (human).
The target of assay [6] is T2, RXFP1 G45A/W46A, full length (human).
T2 chain: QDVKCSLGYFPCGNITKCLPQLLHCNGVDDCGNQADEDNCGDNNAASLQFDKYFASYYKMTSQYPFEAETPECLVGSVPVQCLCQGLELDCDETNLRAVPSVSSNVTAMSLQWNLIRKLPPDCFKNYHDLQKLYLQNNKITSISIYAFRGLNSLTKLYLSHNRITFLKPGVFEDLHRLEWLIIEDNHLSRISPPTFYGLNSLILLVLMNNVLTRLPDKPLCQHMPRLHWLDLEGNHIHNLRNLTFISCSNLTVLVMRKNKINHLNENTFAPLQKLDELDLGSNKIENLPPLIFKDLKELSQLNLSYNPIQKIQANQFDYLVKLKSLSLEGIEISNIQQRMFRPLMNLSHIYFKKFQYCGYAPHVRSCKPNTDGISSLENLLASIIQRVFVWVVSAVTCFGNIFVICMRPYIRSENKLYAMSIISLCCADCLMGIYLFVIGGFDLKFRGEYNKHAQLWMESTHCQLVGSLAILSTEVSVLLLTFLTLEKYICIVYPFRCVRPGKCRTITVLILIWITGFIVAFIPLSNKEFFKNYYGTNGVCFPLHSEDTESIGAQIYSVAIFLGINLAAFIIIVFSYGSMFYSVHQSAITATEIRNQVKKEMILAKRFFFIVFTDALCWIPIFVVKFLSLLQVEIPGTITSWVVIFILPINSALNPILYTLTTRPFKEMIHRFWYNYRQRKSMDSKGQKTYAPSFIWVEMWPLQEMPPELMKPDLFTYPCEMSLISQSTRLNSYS
Description: cell-based or functional assay.

Assay [7] concerns the target T3, RXFP1 G41A/D42A, full length (human).
T3 chain: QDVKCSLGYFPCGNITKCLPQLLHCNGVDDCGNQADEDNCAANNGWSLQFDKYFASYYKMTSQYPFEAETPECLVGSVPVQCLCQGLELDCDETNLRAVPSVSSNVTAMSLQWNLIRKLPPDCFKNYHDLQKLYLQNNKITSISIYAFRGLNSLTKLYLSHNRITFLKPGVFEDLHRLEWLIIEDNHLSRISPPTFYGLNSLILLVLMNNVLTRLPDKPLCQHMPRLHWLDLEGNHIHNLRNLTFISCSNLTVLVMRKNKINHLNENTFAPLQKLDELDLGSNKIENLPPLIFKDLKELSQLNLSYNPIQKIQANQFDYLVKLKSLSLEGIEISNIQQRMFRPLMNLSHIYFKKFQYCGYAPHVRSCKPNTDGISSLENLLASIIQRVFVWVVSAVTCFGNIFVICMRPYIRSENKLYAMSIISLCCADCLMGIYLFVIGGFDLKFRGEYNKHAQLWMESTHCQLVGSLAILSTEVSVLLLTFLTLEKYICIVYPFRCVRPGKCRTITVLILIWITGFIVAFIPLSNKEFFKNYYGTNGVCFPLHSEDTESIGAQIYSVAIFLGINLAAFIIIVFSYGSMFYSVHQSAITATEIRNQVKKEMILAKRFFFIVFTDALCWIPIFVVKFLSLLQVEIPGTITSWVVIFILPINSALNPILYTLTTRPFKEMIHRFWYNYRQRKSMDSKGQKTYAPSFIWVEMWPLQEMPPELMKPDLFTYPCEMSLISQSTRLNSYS
Nature of the assay: cell-based or functional assay.

For assay [8], the target named is T4, RXFP1_((1–72)) (human).
T4 sequence (Q9HBX9 1-72, looked up): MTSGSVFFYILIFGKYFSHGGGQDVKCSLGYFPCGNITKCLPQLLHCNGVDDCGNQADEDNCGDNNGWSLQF
Nature of the assay: NMR titration; 2D 1H-15N HSQC; 50 μM 15N-labelled RXFP1(1–72) titrated with 25-500 μM H2 relaxin; 50 mM imidazole, 10 mM CaCl2, pH 6.8, 25 °C; fit of the shifts of Asp51, Ala55 and Thr61.

B1: H2 relaxin (ligand, human)
chain 1: QLYSALANKCCHVGCTKRSLARFC
chain 2: DSWMEEVIKLCGRELVRAQIAICGMSTWS
What is called Kd is the constant that tells how readily two partners part at equilibrium. For B1, the H2 relaxin-induced cAMP response (pCRE β-galactosidase reporter, HEK293T), pEC50 in assay [1] was 11 pEC50; in assay [2], 7.02 pEC50; in assay [3], 11.2 pEC50; in assay [4] it was 7.48 pEC50; in assay [5], 11.1 pEC50; in assay [6], under 6 pEC50. The “H2 relaxin-induced cAMP response (pCRE β-galactosidase reporter, HEK293T), pEC50” value in assay [7] was 7.26 pEC50. Besides, the dissociation constant Kd in assay [8] was 200 µM.
